In paper PMC7307101:

Tests used:
[1] = molecular target: trimeric influenza virus polymerase of A/turkey/England/50-92/1991(H5N1) (PB2, PB1-Gluc1, PA); experiment: split-luciferase assay; conditions: parent: est. 30; read off a plot
[2] = molecular target: trimeric influenza virus polymerase of A/England/195/2009(pH1N1) (PB2, PB1-Gluc1, PA); experiment: split-luciferase assay; conditions: parent: est. 1.5; read off a plot

human ANP32A-Gluc2 (from UniProt P39687) I106V; P156S
response [1]: 55 NLR
response [2]: 3.5 NLR
